Measured values published in the DeepSol protein solubility set.

Test: soluble on expression in E. coli; label from the status in PepcDB or PDB records

Row | Sequence | soluble on expression in E. coli
1 | MTESKTAIIFDMDGVLVDSEAYYYERRKAFLAEFDLTIEGLTLPELVGADMRSLWQKIEQVNKKELDIAFLNEQYIAYKKAHPIDYLAVLDENAKRVLQFLKRQGYKIGLASSSTKDAIEEVLTVGQLSSYFDAVVSGEDFEESKPAPDIYLHTLQELAVAPQECIAIEDSEKGIASAKEAGLEVWAMRDEHFGMDQSQADAFLTQLSDICKKISENRIDESSESTPS | not soluble
2 | MTEVRRRGRPGQAEPTAQKGAQALERGIAILQYLERSGGSSSVSDISGSLDLPLSTTFRLLKVLQAADFVYQDSQLGWWHIGLGVFNVGSAYIHNRDVLSVAGPFMHRLMLLSGETVNVAIRNGNEAVLIGQKECKSMVRMCAPLGSRLPLHASGAGKALLYPLTEEELVGIVVNTGLRRFTPTTLVDLPILLKNLEQAREQGYTVDQEEHVVGLNCIASAIYDDAGSVVAAISISGPASRLTEDRFISQGELVRDTAKDISTALGLKPPVA | not soluble
3 | MTEVRRRGRPGQAEPVAQKGAQALERGIAILQYLEKSGGSSSVSDISLNLDLPLSTTFRLLKVLQAADFVYQDSQLGWWHIGLGVFNVGAAYIHNRDVLSVAGPFMRRLMLLSGETVNVAIRNGNEAVLIGQLECKSMVRMCAPLGSRLPLHASGAGKALLYPLAEEELMSIILQTGLQQFTPTTLVDMPTLLKDLEQARELGYTVDKEEHVVGLNCIASAIYDDVGSVVAAISISGPSSRLTEDRFVSQGELVRDTARDISTALGLKAHP | soluble
4 | MTGDKEIITMTFKIWQIGLHLQQQEAAAVAIVRGAKECFLQRWWRLPLAHDIIKDGRIVDAQQLAKTLLPWSRELPQRHHIMLAFPASRTLQRSFPRPSMSLGEREQTAWLSGTMARELDMDPDSLRFDYSEDSLSPAYNVTAAQSKELATLLTLAERLRVHVSAITPDASALQRFLPFLPSHQQCLAWRDNEQWLWATRYSWGRKLAVGMTSAKELAAALSVDPDSVAICGEGGFDPWEAVSVRQPPLPPPGGDFAIALGLALGKAY | not soluble
5 | MTGEKLLYIETFGCQMNVSDSEKVASLLRGEGYSQTPDSSEADLIIVNTCSVRAKAEHKVYSYLGRFRKLKRDRRLLLGVGGCVAQQEGERLLKRVPWLDLVFGTHNLHLLPEMVRAAEQGERRAAVDFIDNEARLDLFPQADEGGGVTRFVTVMQGCDNFCSYCIVPYVRGREISRRSVEIIGEIRSAVAGGVREVTLLGQNVNSYGLKTPGELSFAGLLREISAIDGLERIRFTTSHPKDISPELIACFAELPKLCGHIHLPAQAGSDSILARMNRGYTRQEYLEKVAALRAARPEILITGDIIVGFPGETEADFLQTLSLMEEVRYTDIFSFAYSPRPETAAASLGDRIMRKETTERLERVQGLQRDMTIERHAGFVGTCQAVLVEGMSKRGDQLYGRTDGNLIVNFAGNPSLAGSLVDVRITRGYPNSLLGELAVFQ | soluble
6 | MTHALLIGNPNCGKTTLFNALTNANQRVGNWPGVTVEKKTGEFLLGEHLIEITDLPGVYSLVANAEGISQDEQIAAQSVIDLEYDCIINVIDACHLERHLYLTSQLFELGKPVVVALNMMDIAEHRGISIDTEKLESLLGCSVIPIQAHKNIGIPALQQSLLHCSQKIKPLKLSLSVAAQQILNDLENQLISKGYKNSFAYYFSRRLAEGDTLIGEKAFTESLLIKLQETEQNLDVLLADARYQKIHEIVTLVQKK | soluble
7 | MTHIYEPRLSRIAIDKLRPTQIAVGFREVELKRKEWRETRKKDGDDFLGNHIVPVVAGPKDRAYLIDHHHLVLALSKEGVEHVLTSEVAKFSHLGKDEFWSVMDHRNLIYPFDAQGLRRQSGDIPKNIHDLEDDPFRSLAGALRMAGGYAKVIIPFSEFGWADFLRRRIDRDLLSDSFDDALAEAMKLAKSREARHLPGWCGVEEAAALEHHHHHH | soluble
8 | MTHNQSTALLTDMYELTMLQSALADGTAERQCTFEVFGRRLPNERRYGVVAGTPRVLEAVQNFRFTEAQLASLTFLNDTTLEYLRNYRFAGHIDGYREGELYFPHSPILTVRGTFAECVILETVILSIMNADSAVATAAARMVTAADGRTIIEMGSRRTHEYAAVTATRAAYLAGFSATSNLEAVHRYGIPGSGTAAHAWTLLHVNEDGTPNEKSAFESQVRAQGTGTTLLIDTYDIAQGVRNAIEVAGPELGAVRIDSGDLGVMTRKIRQELDNLGAHNTQIVVSSDLDEYAIAGLRGNPVDVFGVGTSVVTGSGAPTAGMVYKLVEVDGNPVSKRSRGKGMLGGAKRAARTHRASGTAVEELVFPYEHPVPQVGTLTSVELTIPLMRDGVVVEGLPTLEESRAYLAQQLVTIPWEGLALSRDEPVLATRHVGFDQLEHHHHHH | soluble
